# How the values were obtained:
# [1] = molecular target: T1, IL-2Rβγ on human CD8+ T cells, NK cells and CD4+ T cells (human, UniProt P14784 27-551; P31785 23-369); test: cell-based or functional assay
# T1 sequence (looked up) 1: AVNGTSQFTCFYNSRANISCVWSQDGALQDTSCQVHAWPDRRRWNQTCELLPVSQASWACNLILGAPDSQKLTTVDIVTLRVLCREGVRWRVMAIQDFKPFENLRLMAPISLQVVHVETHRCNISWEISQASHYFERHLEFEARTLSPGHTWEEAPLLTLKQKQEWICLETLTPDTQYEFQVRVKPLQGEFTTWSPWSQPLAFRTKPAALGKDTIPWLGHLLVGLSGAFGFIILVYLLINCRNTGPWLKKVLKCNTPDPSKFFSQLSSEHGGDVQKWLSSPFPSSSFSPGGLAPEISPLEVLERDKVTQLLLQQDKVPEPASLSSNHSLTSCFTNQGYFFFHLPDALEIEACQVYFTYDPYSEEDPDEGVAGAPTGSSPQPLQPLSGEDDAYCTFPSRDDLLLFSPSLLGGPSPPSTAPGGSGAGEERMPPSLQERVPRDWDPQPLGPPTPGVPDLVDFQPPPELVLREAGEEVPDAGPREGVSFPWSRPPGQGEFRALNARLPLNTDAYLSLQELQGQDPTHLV
# T1 sequence (looked up) 2: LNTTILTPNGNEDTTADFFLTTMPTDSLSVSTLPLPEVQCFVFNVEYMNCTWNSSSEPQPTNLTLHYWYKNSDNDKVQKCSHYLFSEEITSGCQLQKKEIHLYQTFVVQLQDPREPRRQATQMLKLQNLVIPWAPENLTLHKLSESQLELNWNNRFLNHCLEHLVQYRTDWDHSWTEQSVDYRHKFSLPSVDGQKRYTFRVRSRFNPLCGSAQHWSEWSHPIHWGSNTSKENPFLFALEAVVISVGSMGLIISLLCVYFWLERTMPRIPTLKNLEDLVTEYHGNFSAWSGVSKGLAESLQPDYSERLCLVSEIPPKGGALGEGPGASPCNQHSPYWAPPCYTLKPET
# [2] = molecular target: T2, recombinant IL-2Rβγ heterodimer (human); test: ELISA, IL-2Rβγ-Fc heterodimer coated
# T2 construct: IL-2Rβ ECD at the N-terminus of Fc hole chain, γc ECD at the N-terminus of Fc knob chain; also called recombinant IL-2Rβγ protein; dimeric IL-2Rβγ receptor
# T2 chain 1: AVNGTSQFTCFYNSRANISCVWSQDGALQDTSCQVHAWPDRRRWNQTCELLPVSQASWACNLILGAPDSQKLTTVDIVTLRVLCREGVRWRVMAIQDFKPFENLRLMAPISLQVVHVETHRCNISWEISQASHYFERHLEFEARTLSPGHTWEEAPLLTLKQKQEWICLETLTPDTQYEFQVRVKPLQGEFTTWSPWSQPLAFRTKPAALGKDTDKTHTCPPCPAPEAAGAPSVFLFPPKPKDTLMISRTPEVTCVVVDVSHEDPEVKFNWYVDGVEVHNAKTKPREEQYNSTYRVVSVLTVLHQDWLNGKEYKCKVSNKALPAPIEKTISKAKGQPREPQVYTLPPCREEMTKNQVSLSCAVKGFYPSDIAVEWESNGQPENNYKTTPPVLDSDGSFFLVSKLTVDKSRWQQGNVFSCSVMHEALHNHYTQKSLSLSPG
# T2 chain 2: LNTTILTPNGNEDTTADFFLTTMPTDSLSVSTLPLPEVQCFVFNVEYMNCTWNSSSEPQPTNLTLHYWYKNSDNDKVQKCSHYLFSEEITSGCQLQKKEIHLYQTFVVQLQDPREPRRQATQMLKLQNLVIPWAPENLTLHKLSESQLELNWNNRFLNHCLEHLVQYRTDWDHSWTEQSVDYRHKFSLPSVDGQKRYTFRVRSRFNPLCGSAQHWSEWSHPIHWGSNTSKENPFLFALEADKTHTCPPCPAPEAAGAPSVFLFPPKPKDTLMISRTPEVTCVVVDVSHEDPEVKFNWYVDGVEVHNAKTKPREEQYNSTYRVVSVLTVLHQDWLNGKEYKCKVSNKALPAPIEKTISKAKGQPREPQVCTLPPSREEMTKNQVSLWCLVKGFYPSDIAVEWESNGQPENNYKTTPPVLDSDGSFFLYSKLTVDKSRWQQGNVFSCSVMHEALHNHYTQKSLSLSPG
# Method: After overnight incubation at 4° C. and blocking with 1% BSA, 3-fold serial dilutions of IL-2 Fc fusion proteins starting at 10 nM were added to each well at 100 μl/well. […] Subsequently, 100 μl/well of streptavidin-HRP (1:5000 diluted in diluent) were added to each well and incubated at room temperature for 40 min. Wells were thoroughly aspirated and washed three times with PBS/0.05% Tween-20 following each step. Finally, 100 μl TMB substrate was added to each well; the plate was developed at room temperature in the dark for 10 minutes, and 100 μl/well of stop solution (2N Sulfuric acid, Ricca Chemical) was added. Absorbance was determined at 450 nm and curves were fit using Prism software (GraphPad).
# [3] = molecular target: T3, PD1 expressed on cell surface (UniProt Q15116 25-288, limits assumed); test: FACS on PD-1-expressing cells
# T3 construct: whole, on cells; also called PD-1-expressing cells; cell surface expressed PD-1
# T3 sequence (Q15116 25-288 limits assumed): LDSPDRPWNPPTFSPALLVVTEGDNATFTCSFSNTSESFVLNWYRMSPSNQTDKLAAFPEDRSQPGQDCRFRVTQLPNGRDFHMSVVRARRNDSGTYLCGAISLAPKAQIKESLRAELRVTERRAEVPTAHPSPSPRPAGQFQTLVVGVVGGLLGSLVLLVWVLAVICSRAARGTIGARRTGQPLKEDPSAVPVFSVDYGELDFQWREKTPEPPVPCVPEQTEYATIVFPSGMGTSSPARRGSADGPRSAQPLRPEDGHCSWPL
# huPD-1-His = huPD-1-His (human, UniProt Q15116 25-167, limits assumed); test: ELISA, huPD-1-His coated
# Chain of huPD-1-His (Q15116 25-167 limits assumed): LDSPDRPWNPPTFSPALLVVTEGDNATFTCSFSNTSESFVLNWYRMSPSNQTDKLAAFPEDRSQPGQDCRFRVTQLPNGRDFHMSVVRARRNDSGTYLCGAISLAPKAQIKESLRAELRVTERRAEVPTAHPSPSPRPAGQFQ
# Method: A panel of IL-2 muteins was expressed as C-terminal fusions to the Fc homodimer of Fc heterodimer and screened for binding to IL-2Rα in enzyme-linked immunosorbent assay (ELISA). Briefly, IL-2Rα-ECD (SEQ ID NO: 5) was coated onto the wells of Nunc Maxisorp 96-well microplates at 0.1 μg/well. After overnight incubation at 4° C. and blocking with superblock (Thermo Fisher), 3-fold serial dilutions of IL-2 Fc fusion proteins starting at 100 nM were added to each well at 100 μI/well. Following one-hour incubation at room temperature, 100 μl/well of goat anti-human IgG Fc-HRP (1:5000 diluted in diluent) were added to each well and incubated at room temperature for 1 hour. Wells were thoroughly aspirated and washed three times with PBS/0.05% Tween-20 following each step. Finally, 100 μl TMB substrate was added to each well; the plate was developed at room temperature in the dark for 10 minutes, and 100 μl/well of stop solution (2N Sulfuric acid, Ricca Chemical) was added. Absorbance was determined at 450 nm and curves were fit using Prism software (Graph Pad).
# (§1) For direct binding, the same ELISA protocol in Example 4 was followed using huPD-1-His as the coating antigen. […] Briefly, plate was coated with 0.2 μg/well of human PD1-Fc protein at 4° C. for overnight. […] Streptavidin-HRP was added as the secondary antibody.
# human PD1-Fc protein = human PD1-Fc protein (human, UniProt Q15116 25-167, limits assumed); test: competition ELISA, human PD1-Fc coated, biotinylated Human PDL1-Fc at 0.5 µg/mL as the ligand displaced
# Chain of human PD1-Fc protein (Q15116 25-167 limits assumed): as above
# Method: as §1
# [4] = molecular target: PD-1 on PD-1 positive T cells (Tregs) of human PBMC (human, UniProt Q15116 25-288); test: cell-based or functional assay
# Chain of PD-1 on PD-1 positive T cells (Tregs) of human PBMC (Q15116 25-288): as the sequence (Q15116 25-288 limits assumed) above
binding result [2],EC50 (huPD-1-His) [nM],IC50 (human PD1-Fc protein) [nM],Binder,also measured
binds,,,"P-0759 (Fc fusion, knob chain carries the IL-2 variant; hole-Fc; monovalent; also called IL-2 L19Q/P65R/S125I monovalent Fc fusion) chain 1: DKTHTCPPCPAPEAAGAPSVFLFPPKPKDTLMISRTPEVTCVVVDVSHEDPEVKFNWYVDGVEVHNAKTKPREEQYNSTYRVVSVLTVLHQDWLNGKEYKCKVSNKALPAPIEKTISKAKGQPREPQVCTLPPSREEMTKNQVSLWCLVKGFYPSDIAVEWESNGQPENNYKTTPPVLDSDGSFFLYSKLTVDKSRWQQGNVFSCSVMHEALHNHYTQKSLSLSPGGGGSGGGSAPTSSSTKKTQLQLEHLLQDLQMILNGINNYKNPKLTRMLTFKFYMPKKATELKHLQCLEEELKRLEEVLNLAQSKNFHLRPRDLISNINVIVLELKGSETTFMCEYADETATIVEFLNRWITFIQSIISTLT chain 2: DKTHTCPPCPAPEAAGAPSVFLFPPKPKDTLMISRTPEVTCVVVDVSHEDPEVKFNWYVDGVEVHNAKTKPREEQYNSTYRVVSVLTVLHQDWLNGKEYKCKVSNKALPAPIEKTISKAKGQPREPQVYTLPPCREEMTKNQVSLSCAVKGFYPSDIAVEWESNGQPENNYKTTPPVLDSDGSFFLVSKLTVDKSRWQQGNVFSCSVMHEALHNHYTQKSLSLSPG",binding result [3]: no binding
binds,,,"P-0761 (Fc fusion, knob chain carries the IL-2 variant; hole-Fc; monovalent; also called IL-2 L19Y/P65R/S125I monovalent Fc fusion) chain 1: DKTHTCPPCPAPEAAGAPSVFLFPPKPKDTLMISRTPEVTCVVVDVSHEDPEVKFNWYVDGVEVHNAKTKPREEQYNSTYRVVSVLTVLHQDWLNGKEYKCKVSNKALPAPIEKTISKAKGQPREPQVCTLPPSREEMTKNQVSLWCLVKGFYPSDIAVEWESNGQPENNYKTTPPVLDSDGSFFLYSKLTVDKSRWQQGNVFSCSVMHEALHNHYTQKSLSLSPGGGGSGGGSAPTSSSTKKTQLQLEHLLYDLQMILNGINNYKNPKLTRMLTFKFYMPKKATELKHLQCLEEELKRLEEVLNLAQSKNFHLRPRDLISNINVIVLELKGSETTFMCEYADETATIVEFLNRWITFIQSIISTLT chain 2: DKTHTCPPCPAPEAAGAPSVFLFPPKPKDTLMISRTPEVTCVVVDVSHEDPEVKFNWYVDGVEVHNAKTKPREEQYNSTYRVVSVLTVLHQDWLNGKEYKCKVSNKALPAPIEKTISKAKGQPREPQVYTLPPCREEMTKNQVSLSCAVKGFYPSDIAVEWESNGQPENNYKTTPPVLDSDGSFFLVSKLTVDKSRWQQGNVFSCSVMHEALHNHYTQKSLSLSPG",

# The next lines start with the binder.
Binder,binding result [2],EC50 (huPD-1-His) [nM],IC50 (human PD1-Fc protein) [nM],also measured
"P-0731 (Fc fusion, knob chain carries the IL-2 variant; hole-Fc; monovalent; also called IL-2 L19H/P65R/S125I monovalent Fc fusion) chain 1: DKTHTCPPCPAPEAAGAPSVFLFPPKPKDTLMISRTPEVTCVVVDVSHEDPEVKFNWYVDGVEVHNAKTKPREEQYNSTYRVVSVLTVLHQDWLNGKEYKCKVSNKALPAPIEKTISKAKGQPREPQVCTLPPSREEMTKNQVSLWCLVKGFYPSDIAVEWESNGQPENNYKTTPPVLDSDGSFFLYSKLTVDKSRWQQGNVFSCSVMHEALHNHYTQKSLSLSPGGGGSGGGSAPTSSSTKKTQLQLEHLLHDLQMILNGINNYKNPKLTRMLTFKFYMPKKATELKHLQCLEEELKRLEEVLNLAQSKNFHLRPRDLISNINVIVLELKGSETTFMCEYADETATIVEFLNRWITFIQSIISTLT chain 2: DKTHTCPPCPAPEAAGAPSVFLFPPKPKDTLMISRTPEVTCVVVDVSHEDPEVKFNWYVDGVEVHNAKTKPREEQYNSTYRVVSVLTVLHQDWLNGKEYKCKVSNKALPAPIEKTISKAKGQPREPQVYTLPPCREEMTKNQVSLSCAVKGFYPSDIAVEWESNGQPENNYKTTPPVLDSDGSFFLVSKLTVDKSRWQQGNVFSCSVMHEALHNHYTQKSLSLSPG",binds,,,"fold decrease in Ki67 expression on human CD8+ T cells (potency against P-0704) [1]: ~30 fold; fold decrease in proliferation (Ki67) of human CD8+ T cells, NK cells and CD4+ T cells (potency against P-0704) [1]: 30 fold"
"P-0795 (antibody, human IgG1, kappa, V domains shown, full heavy and light chains; also called human PD-1 antagonist antibody; hPD1 antibody) VH: EVQLVESGGGLVKPGGSLRLSCAASGFTFSSYDMSWVRQAPGKGLEWVATISGGGSYTYYPDSVKGRFTISRDNAKNSLYLQMNSLRAEDTAVYYCASPDSSGVAYWGQGTLVTVSS VL: DIVMTQSPLSLPVTPGEPASITCKASQDVETVVAWYLQKPGQSPRLLIYWASTRHTGVPDRFSGSGSGTDFTLKISRVEAEDVGVYYCQQYSRYPWTFGQGTKLEIKR",,0.6,2.1,
"P-0803 (antibody, human IgG1, kappa, also called IL-2 P65R/S125I human PD-1 antibody fusion, (G3S)2 linker) heavy 1: not shown heavy 2: EVQLVESGGGLVKPGGSLRLSCAASGFTFSSYDMSWVRQAPGKGLEWVATISGGGSYTYYPDSVKGRFTISRDNAKNSLYLQMNSLRAEDTAVYYCASPDSSGVAYWGQGTLVTVSSASTKGPSVFPLAPSSKSTSGGTAALGCLVKDYFPEPVTVSWNSGALTSGVHTFPAVLQSSGLYSLSSVVTVPSSSLGTQTYICNVNHKPSNTKVDKKVEPKSCDKTHTCPPCPAPEAAGAPSVFLFPPKPKDTLMISRTPEVTCVVVDVSHEDPEVKFNWYVDGVEVHNAKTKPREEQYNSTYRVVSVLTVLHQDWLNGKEYKCKVSNKALPAPIEKTISKAKGQPREPQVYTLPPCREEMTKNQVSLSCAVKGFYPSDIAVEWESNGQPENNYKTTPPVLDSDGSFFLVSKLTVDKSRWQQGNVFSCSVMHEALHNHYTQKSLSLSPG light: DIVMTQSPLSLPVTPGEPASITCKASQDVETVVAWYLQKPGQSPRLLIYWASTRHTGVPDRFSGSGSGTDFTLKISRVEAEDVGVYYCQQYSRYPWTFGQGTKLEIKRTVAAPSVFIFPPSDEQLKSGTASVVCLLNNFYPREAKVQWKVDNALQSGNSQESVTEQDSKDSTYSLSSTLTLSKADYEKHKVYACEVTHQGLSSPVTKSFNRGEC",,0.6,2.1,"pSTAT5 in PD-1 positive T cells (human PBMC), potency against P-0782 [4]: > 15 fold"

# — patent publication US20220235109A1 (CUGENE, published 2022)
